The text below walks through data of patent US7465453B2, “Polypeptide fragments of CKLF1” (Peking University, priority 2004, dated 2008).

This experiment has as its target T1, CCR5 (Homo sapiens, UniProt P51681).
T1 construct: The cDNA fragments covering the open reading frames for various chemokine receptors were obtained as follows; expressed in transfected cells; host or cells: HEK293 (transient, electroporation)
The experiment in a line: Calcium flux assay in CCR5-transfected HEK293 cells. The format is cell-based. The following applies: for calcium flux: CCR5-transfected HEK293 cells, 167 nM C27 or C19, 100 nM RANTES; for desensitization of transfectants to subsequent RANTES treatment: CCR5 transfectants, first 167 nM peptide, then 100 nM RANTES. The text has this: The cDNA fragments covering the open reading frames for various chemokine receptors were obtained as follows. CCR4, CCR5 and CCR6 receptors were cloned from a K562 cell cDNA library by polymerase chain reaction (PCR). The primers were designed using the sequences from the following GenBank™ submissions: CCR4 (NM_005508.2), CCR5 (NM_000579) and CCR6 (AY242126). The fragments were cloned into an expression vector pcDI (modified in our lab from pcDNA3 vector (Invitrogen), in which the part between BgI II-Kpn I was replaced by the fragment of pCl vector (Promega) digested with BgI II-Kpn I) or pEGFP-N1 vector (CLONTECH) for efficient expression in HEK293 cells. The sequences coding receptors in expression plasmids were confirmed by DNA sequencing, which is consistent with the sequence submitted in GenBank™.
HEK293 cells were grown in RPMI 1640 supplemented with 10% heat-inactivated FBS, penicillin (100 U/ml) and streptomycin (100 μg/ml). Every 4×10^6 HEK293 cells in 400 μl were transiently transfected by electroporation with 15 μg of the expression plasmid at 120 V, 20 ms using an electric pulse generator (Electro Square Porator ECM 830, BTX, San Diego, Calif.), and calcium mobilization assay and chemotaxis assays were performed 48 hours later.
HEK293 cells transfected with pcDI-CCR4 or pcDI-CCR5 were grown in specialized glass-bottom microwell dishes (MatTek Corporation, U.S.A.) and loaded with 10 μM fluo-3/AM in HEPES-buffered saline at 37° C. for 1 hour in the dark. The cells were rinsed with HEPES-buffered saline and stimulated with 167 nM secreted CKLF1 peptides and 100 nM TARC or RANTES, respectively. Fluorescence was monitored at 488 nm (excitation wavelength) and 530 nm (emission wavelength) every 5 second using a Leica TCS-NT confocal fluorescence microscope with a 40× oil immersion lens (Wetzler, Heidelberg, Germany). The measurement was completed at room temperature and each field of cells was selected at random. Images were collected at 5 second intervals for 405 seconds. The images were analyzed for relative fluorescence using Leica confocal software. The relative fluorescence was determined using Microsoft Excel. All calcium flux assays were performed in the presence of extracellular calcium (in the absence of EDTA or EGTA) in the assay buffers. Therefore, both intracellular calcium release and extracellular calcium influx were analyzed.
On the technique in general: A change in cytosolic calcium serves as a functional read-out for many receptors and channels.

T1 sequence (P51681 whole entry, the tested form may be a part): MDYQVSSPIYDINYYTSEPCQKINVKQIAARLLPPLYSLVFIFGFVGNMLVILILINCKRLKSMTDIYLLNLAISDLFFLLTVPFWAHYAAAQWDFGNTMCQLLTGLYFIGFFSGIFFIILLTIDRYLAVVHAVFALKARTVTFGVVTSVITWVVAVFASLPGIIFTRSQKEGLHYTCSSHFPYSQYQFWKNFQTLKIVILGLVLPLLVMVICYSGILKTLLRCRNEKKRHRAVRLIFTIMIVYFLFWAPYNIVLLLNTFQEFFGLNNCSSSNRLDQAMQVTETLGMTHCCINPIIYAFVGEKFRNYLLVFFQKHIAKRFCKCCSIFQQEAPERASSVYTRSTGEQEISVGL

“FNPSGPYQKKPVHEKKEVL (listed as Homo sapiens) [C19]”: the calcium flux entry was “a strong calcium flux” and the “desensitization of transfectants to subsequent RANTES treatment” value is recorded as “could desensitize”.
Consider “ALIYRKL LFNPSGPYQKKPVHEKKEVL (ALIYRKLLFNPSGPYQKKPVHEKKEVL; listed as Homo sapiens) [C27]”, for which the calcium flux result is “a strong calcium flux” and the “desensitization of transfectants to subsequent RANTES treatment” value is recorded as “could desensitize”.
